# Source: the RNAGym collection of RNA variant scans (doi:10.1073/pnas.2313332121)
# B1: TPR t1 (parent)
# chain: GACCAAUCUGCCCUCAGAGCUCGAGAACAUCUUCGGAUGCAGAGGAGGCAGGCUUCGGUGGCGCGAUAGCGCCAACGUCCUCAACCUCCAAUGCAUCCCACCACAUGAUGAUGCCUGAAGAGCCUUGGUUUUUUG
# Variants of: B1
# Assay: polymerase ribozyme fitness, log enrichment relative to wild type (log ratio); higher = more active; in vitro selection for triplet polymerase activity
# How it was run: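 Mutant libraries were PCR-built and transcribed for each subunit of a heterodimeric triplet polymerase ribozyme and selected for one round in triplicate at −7 °C, frozen, before gel excision of extended constructs and streptavidin-bead capture. Input and output libraries were Illumina-sequenced, keeping genotypes with ≥10 input reads and ≥1 read per output. Fitness is a logarithmic ratio of genotype to wild-type enrichment, in base 2, using inverse-variance-weighted replicate averages.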
row,Variant,polymerase ribozyme fitness (log ratio)
1,GACCAAUCUGCCCUCAGAGCUCGAGAACAUCUUCGGAUGCAGAGGAGGGAGGCUUCGGUGGCGCGAUAGCGCCAACGUCCUCAACCUCCAAUUCAUCCCACCACAUGAUGAUGCCUGAAGAGCCUUGGUUUUUUG [C49G G93U],-1.49
2,GACCAAUCUGCCCUCAGAGCUCGAGAACAUCUUCGGAUGCAGAGGAGGCAGGCUUCGGUGGCGCGAUAGCGACAACGUCGUCAACCUCCAAUGCAUCCCACCACAUGAUGAUGACUGAAGAGGCUAGGUUUUUUG [C72A C80G C114A C123G U126A],-6.21
3,GACCAAUCUGCCCUAAGAGCUCGAGAACAUCUUCGGAUGCAGAGGAGGCAGGCUUCGGUGGCGCGAUAGCGCCAACGUCCUCAACCUCCAACGCAUCCCACCACAUGAUCAUGCUUGAAGAGCCUUUGUUUUUUG [C15A U92C G110C C115U G127U],-6
4,GACCAAUCUGCCCUCAGAGCUCGAGAACAUCUUCGGAUGCAGAGGAGGCAGGCUUCGGUGGCGCGGUAGCGCCAACGUCCUCAACCACCAAUGCAUCCCACCACAUGAUGAUGCCUGAAGAGCCUUGGUUUUUUG [A66G U87A],-0.982
5,GGCCAAUCUGCCCUCAGAGCUCGAGAACAUCUUCGGAUGCUGAGGUGGCAGGCUUCGGUGGCGCGAUAGCGCCAACGUCCUCAACCUCCAAUGCAUCCCACCACAUGAUGAUGCCUGAAGAGCCUUGGUUUUUUG [A2G A41U A46U],-3.37
6,GACCAAUCUGCCCUCAGAGCUCGAGAACAUCUUCGGAUGCAGAGGAGGCAGCCGUCGGUGGCGCGAUAGCGCCAACGUCCUGAACCUCCAAUGCAUCCCACCACAUGAUGAUGCCUGAAGAGCCUUGGUUUUUUG [G52C U54G C82G],-1.46
7,GACCAAUCUGCCCUCAGAGCUCGAGAUCGUCUUCGGAUGCAGAGGAGGCAGGCUUCGGUGGCGCGAUAGCGACAACGUCCUCAACCUCCAAUGCAUCCCACCACAUGAUGAUGCCUGAAGAGCCUUGGUUUUUUG [A27U A29G C72A],-2.36
8,GUCCAAUCUGCCCUCAGAGCUCGAGAACAUCUUCGGAUGCAGAGGAGGCAGGGUUUGGUGGCGCGAUAUCGCCAACGUCCUCAACCUCCAAUGCAUCCCACCACAUGAUGAUGCCUGAAGAGCCUUGGUUUUUUG [A2U C53G C56U G69U],-1.92
9,GACCAAUCUGCCCUCAGAGCACGAGAACAUCUUCGGAGGCAGAGGAGGCAGGCUUAGGUGGCGCGAUAGCGCCAACGUCCUCAACCUCCAAUGCAUCCCACCACAUGAUGAUGCCUGAAGAGCCUUGGUUUUUUG [U21A U38G C56A],-1.66
10,GACCAAUCUGCCCUCAGAGCUCGAGAACAUCUUCGUAUGCAGAGGAGGCAGGCUUCGGUGGCGCGAUAGCACCAACGUCCUCAACCUCCAAUGCAUCCCACCACAUGAUGAUGCCUGAAGAGCCUUGGUUUUUUG [G36U G71A],-1.86
11,GACCAAUCUGCCCUCAGAGCUCGAGAACAUCUUCGGAUGCAGAGGAGGCAGGCUUCGGUGGCGCGAUAGCGCCAACGUCCUCAACCUCUGAUGCAUCCCACCACAUGAUGAAGCCUGAAGAGGCUUGGUUUUUUG [C89U A90G U112A C123G],1.96
12,GACCAAUCUGCCCUCAGAGCUCGAGAACAUCUUCGGAUGCAGAGGAGGCAGGCUUCGGUGGCGCGAUAGCGCCAACGUCCUCAUCCUGCAAUGCAUCCCACCACAUGAUGAUGCUUGAAGAGCCUAGGUUUUUUG [A84U C88G C115U U126A],-3.84
13,GACCUAUCUGCCCUCAGAGCUCGAGAACAUCUUCGGAUGCAGAGGAGGCAGGCUUCGGUGGUGCGAUAGCGCCAACGUCCUCAACCUCCAAUGCAUCCCACCACAUGAUGAUGCCUGAAGAGCCUUGGUUUUUUG [A5U C62U],-0.31
14,GACCAAUCUGCCCUCAGAGCUCGAGAACAUCUUCGGAUGCAGAGCAGGCAGGCUUCGGUGACGCGAUAGCGCCAACGUCCUCAACCUCCAAUGCAUCCCACCACAUGAUGAUGCCUGAAGAGCCUUGGAUUUUUG [G45C G61A U129A],-0.659
15,GGCCAAUCUGCCCUCAGAGCUCGAGAGCAUCUUCGGAUGCAGAGGAGGCAGUCUUCGGUGGCCCGAUAGCGCCAACGUCCUCAACCCCCAAUGCAUCCCACCACAUGAUGAUGCCUGAAGAGCCUUGGUUUUUUG [A2G A27G G52U G63C U87C],-2.6
16,GACCAAUCUGCCCUCAGAGCUCGAGAACAUCUUCGGAUGCAGAGGAGGCAGGCUUCGGUGGCUCGAUAGCGCCAACGUCCUCAACCUCCAAUGCAUCACACCACAUGAUGAUGCCUGAAGAGCCUUGGUUUUUUG [G63U C98A],-6.63
17,GACCAAUCUGCCCUCAGAGCUCGAGAACAUCUUCGGAUGCAGAGGAGGCAGGCUUCGGUGGCGCGAUAGCGCCAACGUCCUCAACCUCCAAUGCAUCCCACCUCAUGAUGAUGCCUGGAGAGCCUUGGUUUUUUG [A103U A118G],-5.56
18,GACCAAUCUGCCCUCAGAGUUCGAGAACAUCUUCGGAUGCAGAGGAGGCAGGCUUCGGUGGUGCGAUAGCGCCAACGUCCUCAACCUCCAAUGCAUCCCACCACAUGAUGAUGCCUGAAGAGCCUUGGUUUUUUG [C20U C62U],-1.15
19,GACCAAUCUGCCCUAAGAGCUUGAGAACAUCUUCGGAUGCAGAGGAGGCAGGCUUCGGUGGGGCGAUAGCGCCAACGUCCUCUACCUCCAAUGCAUCACACCACAUGAUGAUGCCUGAAGAGACAUGGUUUUUUG [C15A C22U C62G A83U C98A C123A U125A],-6.9
20,GACCAAUCGGCCCUCAGAGCUCGAGAAAAUCUUCGGAUGCAGAGGAGGCAGGCUUCGGUGGCGCGAUAGCGCCAACGUCCUCAACCUCCAAUGCAUCCCACCACAUGAUGAUGCCUGAAGAGCCUUGGUUUUAUG [U9G C28A U133A],-4.24
21,GACCAAUCUGCCCUCAGAGCUCGAGAACAUCUUCGGAUGCAGAGGAGGCAGGCUUCGGUGGCGCGAUAGCUCCAACGUCCUCAACCUCCAAUGAAUCCCACCACAUGAUGAUGCCUGAAGAGCCUUGGUUUUUUG [G71U C94A],-1.14
